We go through 72 sequences from the supplement of paper PMC10567573.

± gives the standard deviation.

The data set in a line: protein stability index of a GFP-peptide fusion (GPS, HEK-293T) (PSI 1-6); higher = more stable.
Setting [1] is: treatment: DMSO, c terminus: a fixed tail appended.
Setting [2] is: treatment: MLN4924 1 uM, 8 h, c terminus: a fixed tail appended.
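Note: 24-mer peptide tiles fused after GFP, lentivirally expressed, FACS-sorted into six equal bins by GFP/DsRed ratio, decoded by Illumina sequencing, PSI is the read-weighted mean bin number.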

Turning to SWYPKANNQDFIPFTKKRVGVDRA [ZC2HC1C], the protein stability index reads like this: under setting [1], 3.07 ± 0.33; under setting [2], 2.94 ± 0.15.

SYAHGWMFQGWNCGDYFPDGITNG [CPN1] returned a protein stability index under setting [1] of 2.35 ± 0.18 and a protein stability index under setting [2] of 2.27 ± 0.17.

As for SYSTQASAAAATAELLKKQEELNR [SCAMP3], the protein stability index runs as follows: under setting [1], 4.99 ± 0.19; under setting [2], 5.03 ± 0.11.

Take SYTIITPLFNPMIYSLRNKEFKSA [OR10K2]: the protein stability index is, setting by setting: under setting [1], 2.74 ± 0.65; under setting [2], 2.38 ± 0.34.

As to TAIFYTLMTCEMLNRRNGSLRIAL [EDNRA], the protein stability index was 2.85 ± 0.21 under setting [1] and 3.15 ± 0.42 under setting [2].

In the case of TAPRTLPSCLACNRQCLCSAESMV [SPRY1], the protein stability index by setting is: under setting [1], 2.75 ± 0.34; under setting [2], 2.59 ± 0.48.

TAPSGGQWGAEPEGSCYQTFRQYC [RNF208] gave a protein stability index under setting [1] of 2.75 ± 0.29 and a protein stability index under setting [2] of 2.89 ± 0.18.

With TASLLLCPGGLDHKLNLRGKAWG [TIAF1], the protein stability index is, setting by setting: (treatment: DMSO, c terminus: native) 2.98 ± 0.22; (treatment: MLN4924 1 uM, 8 h, c terminus: native) 2.59 ± 0.67.

On to TAWTEACQVEVRLLLAYNSSARIP [INTS4], for which the protein stability index worked out at 3.03 ± 0.4 under setting [1] and 2.43 ± 0.49 under setting [2].

Turning to TCSTRFVSGGSAGGYGGGVSCGFG [KRT13], the protein stability index reads like this: under setting [1], 2.46 ± 0.29; under setting [2], 2.43 ± 0.31.

In the case of TDQPPLVQAIFSGDPEEIRMLIHK [ANKRD44], the protein stability index reads like this: under setting [1], 3.31 ± 0.28; under setting [2], 3.48 ± 0.3.

As for TDRIAAAQYSVTGSAVARAVCKAT [SNAP91], the protein stability index reads like this: under setting [1], 3.9 ± 0.24; under setting [2], 3.94 ± 0.19.

For the sequence TDVRGLEEFLSAMQSARGPTPSSP [PLEKHN1], the protein stability index worked out at 4.12 ± 0.16 under setting [1] and 4.14 ± 0.38 under setting [2].

With TECEGDIQKNYECANFGDQGITMG [LOXL2], the protein stability index under setting [1] is 4.94 ± 0.11 and the protein stability index under setting [2] turned out to be 5.04 ± 0.19.

Take TFNPHKRISAFRALQHSYLHKDEG [CDK4]: the protein stability index is 2.87 ± 0.14 under setting [1] and 3.12 ± 0.09 under setting [2].

Consider TFVSTCQAIDATVAAELLNHLLES [HES6], for which the protein stability index is, setting by setting: under setting [1], 2.48 ± 0.35; under setting [2], 2.48 ± 0.32.

Consider TGEKPHTCSECGKGFIQKGNLNIH [ZNF649], for which the protein stability index runs as follows: under setting [1], 3.14 ± 0.25; under setting [2], 3.54 ± 0.16.

Regarding TGGLLPIKRTIRVLDVNNQSFREQ [NET1], the protein stability index amounted to 2.92 ± 0.13 under setting [1] and 3.03 ± 0.24 under setting [2].

For THSRMGSIMSTGIVQGSSGAQGSG [CARM1], the protein stability index under setting [1] was 4.48 ± 0.1 and the protein stability index under setting [2] came out at 4.26 ± 0.34.

As to THWAVGVCRDSVSRKGELTPLPET [TRIM39], the protein stability index by setting is: under setting [1], 2.96 ± 0.19; under setting [2], 2.95 ± 0.23.

On to TIFSASNYYEVGSNRGAYVKLGPA [PPEF2], for which the protein stability index under setting [1] turned out to be 2.39 ± 0.5 and the protein stability index under setting [2] was 2.66 ± 0.3.

Turning to TIVSCTPVHLVDKLPLPSTLRSHL [RAB40A], the protein stability index reads like this: under setting [1], 2.32 ± 0.091; under setting [2], 2.28 ± 0.15.

TKCEYMLNSMPKRLCLVCGDIASG [ESRRG]: the protein stability index under setting [1] came to 2.32 ± 0.29 and the protein stability index under setting [2] stood at 2.13 ± 0.12.

Regarding TKSHIMLVQRQMSVIEEDLEEFQL [NECAB1], the protein stability index turned out to be 3.22 ± 0.21 under setting [1] and 3.12 ± 0.21 under setting [2].

Turning to TLCDVTLRVEQKDFPAHRIVLAAC [KLHL12], the protein stability index was 2.21 ± 0.52 under setting [1] and 1.83 ± 0.53 under setting [2].

For TLDPNGKTCSRVDHCAQQDHGCEQ [MATN2], the protein stability index by setting is: under setting [1], 4.03 ± 0.25; under setting [2], 4.16 ± 0.22.

With TLGREVMSPLQAMSSYTVAGRNVL [NLN], the protein stability index turned out to be 3.1 ± 0.2 under setting [1] and 3.01 ± 0.34 under setting [2].

For the sequence TLMEEVLLLGLKDREGYTSFWNDC [GOLPH3], the protein stability index by setting is: under setting [1], 2.71 ± 0.58; under setting [2], 2.72 ± 0.69.

Take TLRGTGATADFADVADDFENYHKL [NETO1]: the protein stability index came out at 4.4 ± 0.22 under setting [1] and 4.49 ± 0.084 under setting [2].

For the sequence TLVGCWSDVVGRRSSLLACILLSA [MFSD9], the protein stability index is, setting by setting: under setting [1], 2.84 ± 0.38; under setting [2], 2.71 ± 0.4.

As to TMGLRHLPVVNAVGEIVGIITRHN [CLCN6], the protein stability index is, setting by setting: under setting [1], 2.47 ± 0.19; under setting [2], 2.41 ± 0.12.

With TNNGAGFGLSILWVLLFTPCSFVC [SCAMP3], the protein stability index worked out at 3.04 ± 0.37 under setting [1] and 3.27 ± 0.36 under setting [2].

For TNVESQLAEIRSDLERQNQEYQVL [KRT33B], the protein stability index by setting is: under setting [1], 4.52 ± 0.26; under setting [2], 4.56 ± 0.25.

Take TPEELEEEIPVVICAAAGRMGATM [GLT8D2]: the protein stability index was determined as 4.25 ± 0.26 under setting [1] and 4.29 ± 0.21 under setting [2].

Consider TPMTIPEFFRESVNRFGTYPALAS [ACSBG2], for which the protein stability index stood at 2.6 ± 0.41 under setting [1] and 2.78 ± 0.14 under setting [2].

In the case of TQYVRHSSDPFYTPEPDTCHELLG [TPH1], the protein stability index stood at 3.63 ± 0.35 under setting [1] and 4 ± 0.32 under setting [2].

For the sequence TRGFLRSPSSDLDTDAEGDDFELL [RETREG3], the protein stability index reads like this: under setting [1], 5.24 ± 0.17; under setting [2], 5.29 ± 0.2.

Regarding TSAITASRSESPPPLSDPKQAKVV [BRD3], the protein stability index under setting [1] worked out at 5.24 ± 0.22 and the protein stability index under setting [2] was determined as 5.21 ± 0.077.

For the sequence TSTFEATSEGTLELQQRNPKAERL [ZNF232], the protein stability index by setting is: under setting [1], 5.2 ± 0.2; under setting [2], 5.42 ± 0.14.

Take TSTRYEQPKCDNTARAHPAKARDL [SMOC2]: the protein stability index is, setting by setting: under setting [1], 4.85 ± 0.19; under setting [2], 5.17 ± 0.27.

Regarding TSTSSSITSSIPDTERLDDFHLSI [DVL3], the protein stability index under setting [1] amounted to 3.84 ± 0.27 and the protein stability index under setting [2] was determined as 3.96 ± 0.23.

For TTTDHSSNPGPVPGSSSGPVLGSS [SPAG8], the protein stability index by setting is: under setting [1], 5.08 ± 0.16; under setting [2], 5.13 ± 0.09.

Take TVDGLHFNSTYNARVKAFNKTGVS [TRIM9]: the protein stability index under setting [1] amounted to 3.17 ± 0.19 and the protein stability index under setting [2] was found to be 3.46 ± 0.086.

TVDKQNISLWPREPPPKSGPSLVP [CD207] displayed a protein stability index under setting [1] of 3.84 ± 0.21 and a protein stability index under setting [2] of 3.73 ± 0.082.

With TVGFLDEAIQPYRDRLRSRLEALS [TRIM15], the protein stability index is 2.66 ± 0.27 under setting [1] and 2.77 ± 0.39 under setting [2].

Take TVRAMTHVINQGMAMYWGTSRWSS [KCNAB2]: the protein stability index by setting is: under setting [1], 2.91 ± 0.42; under setting [2], 2.75 ± 0.51.

Sequence TYIPENNARGASIFSVTALDPDSK [PCDHGA10] displayed a protein stability index under setting [1] of 4.49 ± 0.17 and a protein stability index under setting [2] of 4.62 ± 0.15.

TYTHGLGLHRRPGAGHCSASPGPA: the protein stability index by setting is: under setting [1], 3.42 ± 0.24; under setting [2], 3.48 ± 0.24.

For VAGGLVACRVTELQQQPLCTSVNT [LRRC59], the protein stability index was found to be 2.39 ± 0.5 under setting [1] and 2.59 ± 0.18 under setting [2].

On to VAGSLAGAIAQSSIYPMEVLKTRM [SLC25A25], for which the protein stability index worked out at 2.56 ± 0.11 under setting [1] and 2.54 ± 0.32 under setting [2].

Sequence VAGTMESPFSPGLFHRLDEDWDSA [ATF6] yielded a protein stability index under setting [1] of 4.38 ± 0.11 and a protein stability index under setting [2] of 4.32 ± 0.2.

Turning to VAKRKSSMPQKFLGDKGLSDTPYD [IKZF1], the protein stability index turned out to be 4.22 ± 0.1 under setting [1] and 4.38 ± 0.16 under setting [2].

On to VARVLRGCLENMPEADCIPKEQLS [PLK2], for which the protein stability index was determined as 3.42 ± 0.26 under setting [1] and 3.62 ± 0.13 under setting [2].

On to VASMVLGECRQMSSSSQIGNDSFQ [CLCN6], for which the protein stability index runs as follows: under setting [1], 2.87 ± 0.32; under setting [2], 2.67 ± 0.27.

For the sequence VCAICQINLEGKTFYSKKDRPLCK [PDLIM7], the protein stability index reads like this: under setting [1], 2.1 ± 0.44; under setting [2], 2.42 ± 0.5.

For the sequence VDIVTGHARLSDIWAKTPPITRKA [DHCR7], the protein stability index is 3.26 ± 0.093 under setting [1] and 3.38 ± 0.16 under setting [2].

Consider VDNARIVLQIDNARLAADDFRVKY [KRT18], for which the protein stability index amounted to 2.58 ± 0.31 under setting [1] and 2.77 ± 0.21 under setting [2].

Take VDSEQLRRDCDALMAGCIQEARER [CDKN1A]: the protein stability index under setting [1] was 4.82 ± 0.15 and the protein stability index under setting [2] turned out to be 4.7 ± 0.28.

For the sequence VEEVDMAEEFEQPTLSCEKYLTYD [ELOA2], the protein stability index reads like this: under setting [1], 5.09 ± 0.32; under setting [2], 5.19 ± 0.39.

With VELIPEKKGLFLKHVEYEVSSQRF [SNX8], the protein stability index is, setting by setting: under setting [1], 2.31 ± 0.27; under setting [2], 2.46 ± 0.19.

Take VELVNAACNFEPHESFFSLFSDPR [ZER1]: the protein stability index by setting is: under setting [1], 2.45 ± 0.13; under setting [2], 2.54 ± 0.2.

VENECYQVFLDRINRADYCPECYP [TOR1AIP2] yielded a protein stability index under setting [1] of 2.43 ± 0.42 and a protein stability index under setting [2] of 2.62 ± 0.27.

As to VERYHNLCQKQVKAQLPRRESERR [FBXO28], the protein stability index is, setting by setting: under setting [1], 4.08 ± 0.31; under setting [2], 3.99 ± 0.08.

Consider VEVMDETNCQKVLNMWCCCFFKRR [CSNK1G3], for which the protein stability index by setting is: under setting [1], 3.21 ± 0.38; under setting [2], 3.15 ± 0.39.

VEYKDIASIHWDWKIALLFVAFAL [SLC35F2] displayed a protein stability index under setting [1] of 2.81 ± 0.8 and a protein stability index under setting [2] of 2.74 ± 0.32.

For VFMEFGPPNQQMSPSPMSHGHYSM [DLX1], the protein stability index reads like this: under setting [1], 2.21 ± 0.1; under setting [2], 2.24 ± 0.23.

VGDLMSPFDQSGLGAEESLGLLDD [ATF4]: the protein stability index by setting is: under setting [1], 5.17 ± 0.27; under setting [2], 4.89 ± 0.28.

Consider VGGATPDQTTSEETVGGAILDQTT [HDAC6], for which the protein stability index reads like this: under setting [1], 5.48 ± 0.49; under setting [2], 5.43 ± 0.35.

The sequence VGKTRLICARACNTTLTQYQLLAT [RHOBTB1] showed a protein stability index under setting [1] of 2.18 ± 0.35 and a protein stability index under setting [2] of 2.21 ± 0.12.

Take VGRTEPELLVAHAYTRYLGDLSGG [HMOX1]: the protein stability index under setting [1] worked out at 2.68 ± 0.16 and the protein stability index under setting [2] was 2.48 ± 0.08.

For VHPFVNYNSSRFGEGVERELFVRE [MYORG], the protein stability index was found to be 3.09 ± 0.18 under setting [1] and 3 ± 0.37 under setting [2].

On to VILLPYVSKVTGWCRDRLLGHREP [TMEM175], for which the protein stability index reads like this: under setting [1], 2.28 ± 0.3; under setting [2], 2.04 ± 0.36.
